Experimental data as given in patent US12371675B2, “Process and microorganism for synthesis of adipic acid from carboxylic acids” (THE GOVERNING COUNCIL OF THE UNIVERSITY OF TORONTO, priority 2015, dated 2025).

Experiment: AT activity coupled with alanine and glutamate dehydrogenases
Assay type: biochemical
Settings: 10 mM adipaldehyde, alanine and glutamate amino-donors; ND = no activity was detected

B1: Spo3471: aminotransferase (AT) from Ruegeria pomeroyi (protein)
chain: MATITNHMPTAELQALDAAHHLHPFSANNALGEEGTRVITRARGVWLNDSEGEEILDAMAGLWCVNIGYGRDELAEVAARQMRELPYYNTFFKTTHVPAIALAQKLAELAPGDLNHVFFAGGGSEANDTNIRMVRTYWQNKGQPEKTVIISRKNAYHGSTVASSALGGMAGMHAQSGLIPDVHHINQPNWWAEGGDMDPEEFGLARARELEEAILELGENRVAAFIAEPVQGAGGVIVAPDSYWPEIQRICDKYDILLIADEVICGFGRTGNWFGTQTMGIRPHIMTIAKGLSSGYAPIGGSIVCDEVAHVIGKDEFNHGYTYSGHPVAAAVALENLRILEEENILDHVRNVAAPYLKEKWEALTDHPLVGEAKIVGMMASIALTPNKASRAKFASEPGTIGYICRERCFANNLIMRHVGDRMIISPPLVITPAEIDEMFVRIRKSLDEAQAEIEKQGLMKSAA
Adipaldehyde 10 mM U/mg: 0.021 ± 0.001 U/mg

B2: PP4421: aminotransferase (AT) from Pseudomonas putida (protein)
chain: MDKQKQDLISQQDRGAVLHPFTQLKDFASGKAGDPTIIETAKGITITDATGREYIDGFAGLYCMNVGYGRTEVAEAISKQAHKLAYYHTYAAHTTEELARLSDRLVKMAPGKMSKVFYGMSGSDANETQAKLVWYYNNLRGKPNKKKIIARERGYHGCSVVSGSMTGMSFYHDHMDLPIAGILRTGAPHYYWGAEPGETELEFSARRARELEELILREGPDTIGAFIAEPVLGTGGITPPPEGYWAAVQPVLKKYDILLIADEVITGFGRTGAMFGCDKYGIEPDLITVAKGLTSAYAPLSASIVGEKVYKVMEEGADRVGAFSHGYTYSGHPIGVAAANAVLDIVEGENIPAHVDKVGQYFQKSMQETFSSLPIVGEVRGVGMMAAIEFVADPATKKRFDPALKVGARISKAARDRNLIARAMPHGEILGFAPPLVTTEQEVDRIISIAHEAVLSVLDELKV
Adipaldehyde 10 mM U/mg: 0.061 ± 0.001 U/mg

B3: SM2011_c04388: aminotransferase (AT) from Sinorhizobium meliloti (protein)
chain: MNAHNKPNAPVLDSYWMPFTANRQFKAAPRLLAAAEGMHYTSVDGRTVLDGTAGLWCVNAGHGRRQIAAAVERQLSTMDFAPSFQMGHPIAFDFAERLAEIAPGPAGAKLDRVFFTGSGSESVDTALKMALAYQRSIGQGTRTRLIGRERGYHGVGFGGISVGGIVNNRRVFPQLPGSDHLRHTHDPAKNAFVKGQPEHGAELADDLERLVALHGAETIAACIVEPVAGSTGVLIPPKGYLERLRAICDKHGILLIFDEVITGFGRLGAAFATDYFGVTPDIVTTAKGLTNGAIPMGAVFASRKVHDALMHGPEGQIELFHGYTYSGHPAACAAGIATLDIYRDEGLMTRAAEIEGDWHEAMHSMKGLPHVIDIRTIGLIAGIELQSRDGAPGARAYDVFVDCFERGLLIRVTGDIIAFSPPLIAEKQHFGEIVSILADALKRVK
Adipaldehyde 10 mM U/mg: 0.152 ± 0.001 U/mg

B4: Syrb2: aminotransferase (AT) from Pseudomonas syringae (protein)
chain: MSKKFALTAEQRASFEKNGFIGPFDAYSPEEMKETWKRTRLRLLDRSAAAYQDLDAISGGTNIANYDRHLDDDFLASHICRPEICDRVESILGPNVLCWRTEFFPKYPGDEGTDWHQADTFANASGKPQIIWPENEEFGGTITVWTAFTDANIANGCLQFIPGTQNSMNYDETKRMTYEPDANNSVVKDGVRRGFFGYDYRQLQIDENWKPDEASAVPMQMKAGQFIIFWSTLMHASYPHSGESQEMRMGFASRYVPSFVHVYPDSDHIEEYGGRISLEKYGAVQVIGDETPEYNRLVTHTTRGKKFEAV
Adipaldehyde 10 mM U/mg: 0.040 ± 0.001 U/mg

B5: Mll7127: aminotransferase (AT) from Rhizobium loti (protein)
chain: MLNQSNELNAWDRDHFFHPSTHMGTHARGESPTRIMAGGEGVTVWDNNGRKSIDAFAGLYCVNVGYGRQKIADAIATQAKNLAYYHAYVGHGTEASITLAKMIIDRAPKGMSRVYFGLSGSDANETNIKLIWYYNNVLGRPEKKKIISRWRGYHGSGVMTGSLTGLDLFHNAFDLPRAPVLHTEAPYYFRRTDRSMSEEQFSQHCADKLEEMILAEGPETIAAFIGEPILGTGGIVPPPAGYWEKIQAVLKKYDVLLVADEVVTGFGRLGTMFGSDHYGIKPDLITIAKGLTSAYAPLSGVIVADRVWQVLVQGSDKLGSLGHGWTYSAHPICVAAGVANLELIDEMDLVTNAGETGAYFRAELAKAVGGHKNVGEVRGDGMLAAVEFVADKDDRVFFDASQKIGPQVATALAASGVIGRAMPQGDILGFAPPLCLTREQADIVVSKTADAVKSVFANL
Adipaldehyde 10 mM U/mg: 0.063 ± 0.001 U/mg

B6: SCO5676: aminotransferase (AT) from Streptomyces coelicolor (protein)
chain: MTALPQERRVVTAIPGPKSQELQARRTAVVAQGVGSTLPVFVARAGGGVIEDVDGNRLIDFGSGIAVTSVGASAEAVVRKASAQLADFTHTCFMVTPYEGYVAVAEALAELTPGDHAKKSALFNSGAEAVENAVKIARAYTKRQAVVVFDHGYHGRTNLTMALTAKNMPYKHGFGPFAPEVYRVPVAYGYRWPTGAENAGPEAAAQAIDQISKQVGAENVAAVIIEPVLGEGGFIEPAKGFLPAIREFASDNGIVFVADEIQSGFCRTGQWFACEDEGIVPDLITTAKGIAGGLPLSAVTGRAEIMDAAHSGGLGGTYGGNPVACAGALGAIETMKELDLNARAKDIEAVMKSRLAAMAEKFDVIGDVRGRGAMIAIELVKDRETKEPNPAATAALAKACHQEGLLVLTCGTYGNVLRFLPPLVIGEDLLNEGLDIIEQAFTRV
Adipaldehyde 10 mM U/mg: 0.084 ± 0.015 U/mg

B7: SM2011_b21186: aminotransferase (AT) from Sinorhizobium meliloti (protein)
chain: MTSLTDRKNAAISRGVGMTTQVYADRAENAEIWDKEGNRYIDFAAGIAVVNTGHRHPKVIAAVKAQLDRFTHTCHQVVPYENYVHLAERLNAIVPGDFAKKTIFVTTGAEAVENAVKIARAATGRQAVVAFGGGFHGRTFMGMALTGKVVPYKVGFGAMPADVFHAPFPIELHGVTVEQSLSALKKLFAADVDPARVAAIIIEPVQGEGGFYPVPTAFMKALREVCDQHGILLIADEVQTGFARTGKLFAMEHHGVAPDLTTMAKSLAGGFPLAAVTGRAEIMDAPGPGGLGGTYGGNPLGIAAAHAVLDVIAEENLCERANQLGNRLKQRLAAIREKAPEIVDIRGPGFMNAVEFNDVRTNLPSAEFANKVRLLALEKGLILLTCGVHGNVIRFLAPITIQDEVFAEALDTIEASILEARG
Adipaldehyde 10 mM U/mg: 0.051 ± 0.014 U/mg

B8: SM2011_b20379: aminotransferase (AT) from Sinorhizobium meliloti (protein)
chain: MNDRPNSLHALDKQSLVHPYTNLAVHQETGPHVITGGDGIYVVDDEGKRYIEGLAGLFCAGLGFSEQRLVEAATRQLKTMPFYHSFAHKSTEPGIRLAEKLLSIAPVPMSKVFFAGSGSEANDTAIKLIWYYNNALGRPEKKKIISRRKAYHGVTVATASLTGLPFNHRDFDLPIANILHTDCPHYWRFAETGETEEDFATRMANNLEAIILEEGPETIAAFFAEPVMVSGGVITPPKTYFEKVQAVLRKYDILLIADEVICGFGRTGNMFGSETYGLKPDMISCAKQLSAAYMPISALMINAKIADALVDQSRKIGTFSHGFTYGGHPVAAAVALEALTIYEEIDIVGHVRSVAPAFQDRVRKLGEHPLIGEARGVGLVAGLEFVKDKATRENFPPAWQVANQAGKFATARGVLTRGLGDMVSLCPAMIIDDEQIDDLMTRMGLALDDTLAWARAQGHVG
Adipaldehyde 10 mM U/mg: 0.106 ± 0.008 U/mg

B9: SM2011_b20423: aminotransferase (AT) from Sinorhizobium meliloti (protein)
chain: MLERSNELTAWDRDHFFHPSTHMGMHARGETPTRVIGGGEGVYITDISGKRSLDAFAGLYCVNVGYGRQKIADAIAEQAKNLAYYHAYVGHGTEASIRLSKMIIDRAPEGMSRVYFGLSGSDANETNIKLIWYYNNILGRPEKKKIISRWRGYHGSGVMTGSLTGLHLFHNAFDLPRAPILHTEAPYYFRRPDRSMSEEQFSQYCADKLEEMILAEGPDTVAAFIGEPILGTGGIVPPPKGYWEKIQAVLQKYDILLVADEVVTGFGRLGTMFGSDHYGIKPDLITIAKGLTSAYAPLSGTIVSDKLWQVLVKGSDELGAIGHGWTYSAHPICAAAGIANLELIDELGIVENAGSTGAYFRAELQKAVGDHRHVGEVRGDGLMAAIEFVEDRDDRAFFDPGRKVGPQVAAALLERGVIGRAMPQGDILGFAPPLCLTRDEADIVVKAAADTIQSVLGR
Adipaldehyde 10 mM U/mg: 0.162 ± 0.002 U/mg

B10: SAV2583: aminotransferase (AT) from Streptomyces avermitilis (protein)
chain: MSALPQERRVVTAIPGPKSQELQARRTAVVAAGVGSVLPVFTTRAGGGIIEDVDGNRLIDFGSGIAVTSVGASAEAVVRRASAQLQDFTHTCFMVTPYEGYVAVAEALAELTPGDHAKKSALFNSGAEAVENAVKIARAYTKRQAVVVFDHGYHGRTNLTMALTAKNMPYKNGFGPFAPEVYRVPVAYGYRWLTGPENAGAEASAQAIDMINKQIGADNVAAIIIEPVLGEGGFIEPAKGFLPAISKFAKDNGIVFVADEIQSGFCRTGQWFACEDEGIVPDLITTAKGIAGGLPLAAVTGRAEIMDAAHAGGLGGTYGGNPVACAGALGAIETMKELDLNAKAKNIEAVMKARLGAMAEKFDIIGDVRGRGGMIAIELVKDRDTKEPNPEAAGALAKACHQEGLLVLTCGTYGNVLRFLPPLVIGEDLLNEGLDIIEQAFSRI
Adipaldehyde 10 mM U/mg: 0.136 ± 0.011 U/mg

B11: SM2011_c01534: aminotransferase (AT) from Sinorhizobium meliloti (protein)
chain: MSNRLNTTPNDLSAFWMPFTANRQFKKEPRLFVGAKDMYYTTHDGRTVLDGTAGLWCVNAGHCRPKITEAIREQAGELDYAPAFQLGHPKAFELANRLVDIAPEGMNHVLYTNSGSESVDTALKVALAYHRAKGNGSRFRLIGRERGYHGVNFGGISVGGIVANRKMFGTLLTGVDHLPHTHLPAKNAFSRGEPEHGADLAAELERIVTLHDASTVAAVIVEPVAGSTGVLIPPKGYLQKLREICTKHGILLIFDEVITGYGRLGTPFAAQYFDVKPDIITTAKGLTNGVIPMGAVFVTSEIHDAFMTGPEHLIEFFHGYTYSGNPIASAAALGTLDTYREEGLLTRAAELAPYWEEALHSLKDCPHVIDIRNIGLIGAVELEPIAGEPTKRAFSAFLKAYEKGLLIRTTGDIIALSPPLIIEKRQIDELFDKLRDVLKNNI
Adipaldehyde 10 mM U/mg: 0.021 ± 0.003 U/mg
